Sequences and labels used below:
B1: TrwF/VirB9 (natural protein, plasmid R388)
chain: LDVPSSSRYDHRIRYVTYNPADVVQVDTVLGVATHIMLEEGEQYLTHAFGIPKPMPLPGRAGIFLSSRTAELANTNLIVVTDRRSYKFRLQMRNDRNGAMYELAFRYPDTQARQTREANARAAVEAAFEQRVGAYYNLKYMMSGDKDIAPVNAWDDGRFTYFKFSANADLPSIYFVDAEGNESLVPRTTVGSSNNIIAVHKVNPKWMIRLGNRALAIFNEAYDPNGVPNDTGTASPAVRRVNKGGN
B2: TrwJ/VirB5 (natural protein, plasmid R388, UniProt O50331 23-226, looked up)
chain: QGIPVFDGTRALDFVQQFARMKEQLDTAKDQLAEAQRMYEAVTGGRGLGDLMRNAQLREYLPDDLRTVYDSANGGGYSGISGSINDILRDERLNGSVADMRRSIEERSRTARTTDKAVGCGPTKGHSNASRRLKDEISRTQDQKAIEELQARIAGEQAAIQNETTKLQMIAQLRQAEQALISEQRRERNMPILSSGNQGMPTIQ
B3: TrwI/VirB6 (natural protein, plasmid R388)
chain: MAFELFTPLFNKIDQTTATYVTDISSRAIAAITPVVSVGLTLGFITYGWLIIRGAVEMPVAEFLNRCLRIGIIVSIALAGGLYQGEIANAITTVPDELASALLGNPTEGASAAALVDQSAQQGFDRASEAFEEAGFFSSDGLLYGLFGIIIPAGYGPAGAIGGAFLLLAKIALALLAGLGPLFILALIWQPTHRFFDQWAQQVLNYGLLIVLFAAVFGLLMQIFGSYMADLRFDGAQNVAYAIGGSVILSIVSIVLLMQLPSIASGLAGGIGLGYMWELRSMRSGAGAAMRGGRAMARGARAAPGAARGAAVGAANMAKTVATGGAGVARAAAGYFRGRKAG
B4: TrwG/VirB8 (natural protein, plasmid R388)
chain: MSKKQPKPVKAEQLKSYYEESRGLERDLIGEFVKSRKTAWRVATASGLFGLLGMVCGIVGFSQPAPAPLVLRVDNATGAVDVVTTLREHESSYGEVVDTYWLNQYVLNREAYDYNTIQMNYDTTALLSAPAVQQDYYKLFDGSNARDRVLGNKARITVRVRSIQPNGRGQATVRFTTQQHNSNGTVERPQHQIATIGYTYIGAPMRSSDRLLNPLGFQVTSYRADPEILNN

Test in all cases: cryo-EM structure
Data set [1] deals with T1, TrwE/VirB10 (plasmid R388, UniProt O50337 1-395).
T1 sequence: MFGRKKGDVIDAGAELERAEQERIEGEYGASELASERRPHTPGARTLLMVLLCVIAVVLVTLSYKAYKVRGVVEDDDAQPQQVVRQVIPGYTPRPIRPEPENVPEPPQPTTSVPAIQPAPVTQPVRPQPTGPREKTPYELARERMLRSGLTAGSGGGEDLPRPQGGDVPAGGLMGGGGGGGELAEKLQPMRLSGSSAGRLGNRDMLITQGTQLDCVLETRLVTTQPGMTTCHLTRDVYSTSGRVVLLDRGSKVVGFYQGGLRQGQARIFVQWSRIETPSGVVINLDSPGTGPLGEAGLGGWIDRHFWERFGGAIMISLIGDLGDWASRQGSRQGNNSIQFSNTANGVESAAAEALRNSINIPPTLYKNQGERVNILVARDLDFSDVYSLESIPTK

In data set [2] the target is B3.
Data set [3] concerns the molecule itself.

For the molecule B1, the binding result in data set [1] was “binds”.

Turning to B2, the binding result in data set [2] is “binds”.

As for B3, in data set [1], the binding result is “binds”.

For the molecule B4, in data set [1], the binding result was “binds”. For the same molecule, in data set [3], the “stoichiometry N” value came out at 24.

A word on the stoichiometry N: it is a count of units in the complex or per binding partner.

Values taken from doi:10.1101/2024.02.08.579498 (bioRxiv, 2024).
